Reference: patent US20060272037A1 (JULIUS MAXIMILIANS UNIVERSITAT, published 2006)

Columns and labels:
[1] = molecular target: T1, PTH receptor-cam8 "chameleon" (human); assay: competition ligand binding, receptor stably expressed in HEK293 cells
T1 construct: Stably expressed in HEK293 cells; also tested in membranes made from these cells; also called PTHR-cam; PTHR-cam8

[2] = molecular target: T1, PTH receptor-cam8 "chameleon"; assay: cell-based or functional assay

T1 sequence (chain, as listed by the source limits assumed): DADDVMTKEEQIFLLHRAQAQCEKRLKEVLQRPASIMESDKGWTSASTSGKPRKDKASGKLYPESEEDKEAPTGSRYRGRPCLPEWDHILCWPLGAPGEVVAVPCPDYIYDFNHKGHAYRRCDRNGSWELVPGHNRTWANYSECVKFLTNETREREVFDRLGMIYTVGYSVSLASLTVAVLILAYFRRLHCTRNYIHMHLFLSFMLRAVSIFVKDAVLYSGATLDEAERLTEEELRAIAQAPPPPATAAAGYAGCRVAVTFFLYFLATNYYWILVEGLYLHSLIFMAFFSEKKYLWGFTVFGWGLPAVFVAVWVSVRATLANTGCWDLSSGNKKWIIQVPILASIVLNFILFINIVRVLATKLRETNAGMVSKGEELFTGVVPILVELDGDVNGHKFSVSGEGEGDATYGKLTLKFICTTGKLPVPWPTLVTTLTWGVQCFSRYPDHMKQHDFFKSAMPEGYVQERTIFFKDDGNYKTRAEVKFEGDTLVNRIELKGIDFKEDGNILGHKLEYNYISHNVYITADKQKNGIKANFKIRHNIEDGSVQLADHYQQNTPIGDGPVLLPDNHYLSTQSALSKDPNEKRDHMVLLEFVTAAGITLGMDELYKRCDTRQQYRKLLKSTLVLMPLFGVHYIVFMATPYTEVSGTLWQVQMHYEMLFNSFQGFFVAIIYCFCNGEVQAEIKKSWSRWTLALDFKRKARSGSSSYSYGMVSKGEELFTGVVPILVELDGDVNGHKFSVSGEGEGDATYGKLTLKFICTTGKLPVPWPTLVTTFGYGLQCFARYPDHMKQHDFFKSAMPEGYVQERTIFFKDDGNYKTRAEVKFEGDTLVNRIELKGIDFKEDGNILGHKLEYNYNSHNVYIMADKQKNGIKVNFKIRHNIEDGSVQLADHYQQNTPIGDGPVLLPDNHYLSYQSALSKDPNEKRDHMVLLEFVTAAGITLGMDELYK

**Q.** SVSEIQLMHNLGKHLNSMERVEWLRKKLQDVHNF (peptide, UniProt P01270 32-65, looked up) [parathyroid hormone (PTH)] was tested. Which Ki [1] did it give?
**A.** 15.5 nM

**Q.** And the “EC50 of signalling to adenylyl cyclase” value [2]?
**A.** 12.8 nM
